Source: publication PMC5109244, “A pH‐ and ionic strength‐dependent conformational change in the neck region regulates DNGR‐1 function in dendritic cells” (The EMBO Journal, 2016)

Molecular target: the molecule itself
Assay: non-reducing SDS-PAGE and Western blot; supernatants of 293F cells with FLAG-tagged ECD proteins, Laemmli buffer without reducing agent, HRP-conjugated anti-FLAG detection

B1: human DNGR-1 ECD (extracellular domain of human DNGR-1) (domain or fragment)
chain: not shown
modifications: glycosylated (mobility augmented by PNGase F)
notes: human DNGR-1 (CLEC9A), single isoform, extracellular domain K57–V241; Disulfide-bonded homodimer; also called human ECD; human isoform; source: 293F cells, transient transfection
stoichiometry N: 2
